Patent US8617548B2 (priority 2006, dated 2013)
Like-named read-outs stand apart in the source and are kept apart here.

Experiments:
B. anthracis = system: B. anthracis; parameters: species or system New Zealand White (NZW) rabbits; settings: rabbit, in vivo
[1] = cynomolgus monkey, in vivo

C[C@H]1COc2c(N3CCN(C)CC3)c(F)cc3c(=O)c(C(=O)O)cn1c23 [Levofloxacin, levofloxacin, reference compound]
Blood sample, B. anthracis positive culture, Study Day 34 (end of study) (B. anthracis): 0/4 | Blood sample, B. anthracis positive culture, moribund euthanized or found dead (B. anthracis): 8/8 | Tissue (spleen) sample, B. anthracis positive culture, Study Day 34 (end of study) (B. anthracis): 0/4 | Tissue (spleen) sample, B. anthracis positive culture, moribund euthanized or found dead (B. anthracis): 7/8

B1: ETI-204 (antibody, chains of the INN, looked up, V domains shown)
VH: QVQLQQSGPELKKPGASVKVSCKDSGYAFSSSWMNWVRQAPGQGLEWIGRIYPGDGDTNYNGKFQGRVTITADKSSSTAYMELSSLRSEDTAVYFCARSGLLRYAMDYWGQGTLVTVSS
VL: DIQMTQSPSSLSASVGDRVTITCRASQDIRNYLNWYQQKPGKAVKLLIYYTSRLLPGVPSRFSGSGSGTDYSLTISSQEQEDIGTYFCQQGNTLPWTFGQGTKVEIR
Blood sample, B. anthracis positive culture, Study Day 34 (end of study) (B. anthracis): 0/4 | Tissue (spleen) sample, B. anthracis positive culture, Study Day 34 (end of study) (B. anthracis): 0/4 | Blood sample, B. anthracis positive culture, Study Day 34 (end of study) (B. anthracis; iv): 0/4 | Tissue (spleen) sample, B. anthracis positive culture, Study Day 34 (end of study) (B. anthracis; iv): 0/4 | bioavailability of IM anti-PA as compared to IV administration [1]: 83% | clearance (in words) [1]: lower clearance | volume of distribution at a steady-state (in words) [1]: small volume of distribution | AUC (0-inf) dose dependency (in words) ([1]; im, 10 mg/kg): linear by dose
